Reference: article PMC5473643, “A semisynthetic Atg3 reveals that acetylation promotes Atg3 membrane binding and Atg8 lipidation” (Nature Communications, 2017)
Changes are numbered by the printed parent chain.

Key:
Conditions in all cases: both partners purified
[1] = target: T1, semi-synthetic Atg3 K19ac-K48ac (Saccharomyces cerevisiae, UniProt P40344 1-310, Gln27 mutated to Cys27 | S54C, acetyl-lysine at K19 and K48); test: MST; Monolith NT.115 (20% LED, 20% MST power); Atg8 labelled with Dye NT-647 NHS, Atg3 at different concentrations; 50 mM Tris-HCl pH 7.4, 150 mM NaCl, 10 mM MgCl2, 0.05% Tween-20; apparent KD, mean of three independent experiments
T1 construct: Atg3 of yeast Saccharomyces cerevisiae, Atg3(1-310), 310 amino acids, with Gln27 and Ser54 mutated to Cys for ligation; also called K19/K48-diacetylated Atg3; 2ac
T1 sequence (looked up): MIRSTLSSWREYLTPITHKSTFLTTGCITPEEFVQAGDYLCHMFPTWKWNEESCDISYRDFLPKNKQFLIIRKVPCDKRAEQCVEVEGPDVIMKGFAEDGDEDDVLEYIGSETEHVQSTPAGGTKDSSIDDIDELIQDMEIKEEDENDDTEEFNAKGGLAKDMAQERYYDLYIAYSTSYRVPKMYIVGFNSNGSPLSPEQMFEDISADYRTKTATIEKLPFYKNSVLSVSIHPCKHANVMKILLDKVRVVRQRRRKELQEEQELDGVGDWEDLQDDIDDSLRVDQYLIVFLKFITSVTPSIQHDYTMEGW

[2] = target: T2, WT Atg3 (bacterially expressed and purified) (Saccharomyces cerevisiae, UniProt P40344 1-310); test: as above
T2 construct: Atg3, E2-like enzyme of yeast Saccharomyces cerevisiae (310 amino acids); 'the region coding WT Atg3' inserted into pGEX-6P-1; GST excised with PreScission protease; residues of the vector may remain at the N-terminus (surmised); also called Atg3 WT; E. coli expressed WT Atg3; source: E. coli BL21 (DE3), purified (glutathione-Sepharose 4B, PreScission protease, Mono Q, Superdex 200)
T2 sequence (looked up): T1 sequence (looked up) with C27Q, C54S

[3] = target: T1, semi-synthetic Atg3 K19ac-K48ac; test: SPR; Biacore T200, 25 °C; Atg3 immobilised by amine coupling on CM5 chip (400 RU); Atg8 injected at 30 μl/min up to 3,200 nM; 10 mM phosphate buffer, 2.7 mM KCl, 137 mM NaCl, 0.05% surfactant P20, pH 7.4
[4] = target: T2, WT Atg3 (bacterially expressed and …); test: as above

- Kd [1]: 490 ± 80 nM
- Kd [2]: 520 ± 70 nM
- Kd [3]: 650 ± 70 nM
- Kd [4]: 730 ± 50 nM
B1: Atg8 (bacterially expressed and purified) (natural protein, yeast, UniProt P38182 1-117, looked up)
chain: MKSTFKSEYPFEKRKAESERIADRFKNRIPVICEKAEKSDIPEIDKRKYLVPADLTVGQFVYVIRKRIMLPPEKAIFIFVNDTLPPTAALMSAIYQEHKDKDGFLYVTYSGENTFGR
notes: Atg8 of yeast; 'the region coding ; Atg8' inserted into pGEX-6P-1; In the MST experiment this Atg8 was labelled on primary amines with Dye NT-647 NHS; also called recombinant Atg8; purified Atg8; source: E. coli BL21 (DE3), purified (glutathione-Sepharose 4B, PreScission protease, Mono Q, Superdex 200)
